In paper PMC7652922:

Assay: L-[14C]arginine to L-[14C]citrulline conversion, transfected HEK293, low glucose
Details: glycan lost; control: WT-eNOS

B1: endothelial nitric oxide synthase (eNOS): T866A (protein)
parent chain: MGNLKSVAQEPGPPCGLGLGLGLGLCGKQGPATPAPEPSRAPASLLPPAPEHSPPSSPLTQPPEGPKFPRVKNWEVGSITYDTLSAQAQQDGPCTPRRCLGSLVFPRKLQGRPSPGPPAPEQLLSQARDFINQYYSSIKRSGSQAHEQRLQEVEAEVAATGTYQLRESELVFGAKQAWRNAPRCVGRIQWGKLQVFDARDCRSAQEMFTYICNHIKYATNRGNLRSAITVFPQRCPGRGDFRIWNSQLVRYAGYRQQDGSVRGDPANVEITELCIQHGWTPGNGRFDVLPLLLQAPDDPPELFLLPPELVLEVPLEHPTLEWFAALGLRWYALPAVSNMLLEIGGLEFPAAPFSGWYMSTEIGTRNLCDPHRYNILEDVAVCMDLDTRTTSSLWKDKAAVEINVAVLHSYQLAKVTIVDHHAATASFMKHLENEQKARGGCPADWAWIVPPISGSLTPVFHQEMVNYFLSPAFRYQPDPWKGSAAKGTGITRKKTFKEVANAVKISASLMGTVMAKRVKATILYGSETGRAQSYAQQLGRLFRKAFDPRVLCMDEYDVVSLEHETLVLVVTSTFGNGDPPENGESFAAALMEMSGPYNSSPRPEQHKSYKIRFNSISCSDPLVSSWRRKRKESSNTDSAGALGTLRFCVFGLGSRAYPHFCAFARAVDTRLEELGGERLLQLGQGDELCGQEEAFRGWAQAAFQAACETFCVGEDAKAAARDIFSPKRSWKRQRYRLSAQAEGLQLLPGLIHVHRRKMFQATIRSVENLQSSKSTRATILVRLDTGGQEGLQYQPGDHIGVCPPNRPGLVEALLSRVEDPPAPTEPVAVEQLEKGSPGGPPPGWVRDPRLPPCTLRQALTFFLDITSPPSPQLLRLLSTLAEEPREQQELEALSQDPRRYEEWKWFRCPTLLEVLEQFPSVALPAPLLLTQLPLLQPRYYSVSSAPSTHPGEIHLTVAVLAYRTQDGLGPLHYGVCSTWLSQLKPGDPVPCFIRGAPSFRLPPDPSLPCILVGPGTGIAPFRGFWQERLHDIESKGLQPTPMTLVFGCRCSQLDHLYRDEVQNAQQRGVFGRVLTAFSREPDNPKTYVQDILRTELAAEVHRVLCLERGHMFVCGDVTMATNVLQTVQRILATEGDMELDEAGDVIGVLRDQQRYHEDIFGLTLRTQEVTSRIRTQSFSLQERQLRGAVPWAFDPPGSDTNSP
enzymatic_activity, fold_change: decreases, compared with T866A-eNOS, the activity of WT-eNOS was increased 8 to 10 folds
